From patent US20240409647A1, “BISPECIFIC BINDING PROTEINS AGAINST ALARMINS AND USES THEREOF” (SINOMAB BIOSCIENCE LIMITED, priority 2022, published 2024)
Values joined by “and” are separate entries in the source; they are usually repeats but may differ in a detail not shown here. Equal values may be shown once.

Experiments:
murine IL17RB = target: T1, murine IL17RB (Mus musculus, UniProt Q9JIP3); test: ELISA, SM17 binding to coated IL-17RB protein (murine); conditions: two wells
T1 construct: purchased R&D systems
T1 sequence (Q9JIP3 18-499): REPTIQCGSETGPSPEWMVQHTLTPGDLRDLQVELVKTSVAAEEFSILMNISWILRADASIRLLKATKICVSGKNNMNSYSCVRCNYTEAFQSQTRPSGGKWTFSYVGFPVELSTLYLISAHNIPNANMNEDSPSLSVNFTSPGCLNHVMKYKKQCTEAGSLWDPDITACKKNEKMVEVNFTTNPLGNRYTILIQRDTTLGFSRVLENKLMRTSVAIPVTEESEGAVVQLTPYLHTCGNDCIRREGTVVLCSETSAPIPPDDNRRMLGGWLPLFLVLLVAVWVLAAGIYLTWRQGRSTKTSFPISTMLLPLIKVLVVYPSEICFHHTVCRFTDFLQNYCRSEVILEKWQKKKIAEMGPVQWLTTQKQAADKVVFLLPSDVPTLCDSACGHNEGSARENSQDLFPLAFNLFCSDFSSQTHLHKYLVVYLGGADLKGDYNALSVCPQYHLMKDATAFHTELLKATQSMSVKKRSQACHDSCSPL
Protocol: A standard enzyme-linked immunosorbent assay (ELISA) method was used to determine the species specificity of SM17 against IL-17RB proteins. Briefly, IL-17RB proteins from human, mouse, cynomolgus or rhesus monkey (R&D systems, Minneapolis, MN) were diluted to 2.5 μg/ml in PBS and 50 μl of IL-17RB proteins were added to each well of ELISA strip. The strips were sealed with parafilm and incubated at 4° C. overnight for coating.
On the next day, strips were washed thrice with washing buffer (0.05% Tween 20 in PBS) and blocked with 100 μl per well with blocking buffer (3% BSA in PBS) for 2 hours RT before serially diluted SM17 (at a final concentration of 10, 2, 0.4, 0.08, 0.016, 0.0032, and 0.00064 μg/ml, respectively) was added.

hIL17RE = target: T2, hIL17RE (Homo sapiens, UniProt Q8NFR9); test: ELISA, SM17 specificity against IL-17 receptor subunits (IL17RE); assay type: binding; conditions: 0.4 to 0.00064 μg/mL
T2 construct: purchased R&D systems
T2 sequence (Q8NFR9 24-667): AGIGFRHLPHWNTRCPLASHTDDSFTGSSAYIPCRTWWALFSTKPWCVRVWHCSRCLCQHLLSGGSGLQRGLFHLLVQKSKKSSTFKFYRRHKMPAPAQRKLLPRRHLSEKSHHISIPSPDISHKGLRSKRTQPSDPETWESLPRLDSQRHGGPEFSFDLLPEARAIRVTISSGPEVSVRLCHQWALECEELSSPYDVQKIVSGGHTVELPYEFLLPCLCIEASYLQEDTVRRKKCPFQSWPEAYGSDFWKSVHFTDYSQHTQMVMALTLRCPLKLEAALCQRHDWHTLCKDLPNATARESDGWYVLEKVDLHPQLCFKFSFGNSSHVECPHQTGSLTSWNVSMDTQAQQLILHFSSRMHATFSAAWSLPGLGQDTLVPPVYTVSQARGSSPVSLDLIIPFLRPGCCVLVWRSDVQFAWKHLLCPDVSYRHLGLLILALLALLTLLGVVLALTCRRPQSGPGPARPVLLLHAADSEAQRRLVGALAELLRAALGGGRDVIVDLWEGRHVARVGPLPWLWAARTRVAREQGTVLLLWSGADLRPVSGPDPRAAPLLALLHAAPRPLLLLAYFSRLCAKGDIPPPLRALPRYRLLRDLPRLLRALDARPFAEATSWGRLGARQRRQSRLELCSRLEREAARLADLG
Protocol: A standard ELISA method was used to determine the specificity of SM17 against other human IL17 receptor subunits. Similarly, serially diluted SM17 at different concentrations (final concentrations at 0.4, 0.08, 0.016, 0.0032 and 0.00064 μg/m, respectively) was added to the wells of ELISA plates coated either with human IL-17 receptor subunits A, C, D and E (IL17RA, IL17RC, IL17RD, and IL17RE) (R&D systems).

[1] = target: T3, rhesus monkey IL17RB expressed on HEK293 cells (Macaca mulatta, UniProt H9FWT9); test: Flow cytometry, SM17 binding to HEK293 transfected with rhesus monkey IL-17RB; conditions: SM17 1 μg/ml
T3 construct: transfected either with full-length human or rhesus monkey IL-17RB (SinoBiological, Beijing, China); host or cells: HEK293
T3 sequence (H9FWT9 18-502): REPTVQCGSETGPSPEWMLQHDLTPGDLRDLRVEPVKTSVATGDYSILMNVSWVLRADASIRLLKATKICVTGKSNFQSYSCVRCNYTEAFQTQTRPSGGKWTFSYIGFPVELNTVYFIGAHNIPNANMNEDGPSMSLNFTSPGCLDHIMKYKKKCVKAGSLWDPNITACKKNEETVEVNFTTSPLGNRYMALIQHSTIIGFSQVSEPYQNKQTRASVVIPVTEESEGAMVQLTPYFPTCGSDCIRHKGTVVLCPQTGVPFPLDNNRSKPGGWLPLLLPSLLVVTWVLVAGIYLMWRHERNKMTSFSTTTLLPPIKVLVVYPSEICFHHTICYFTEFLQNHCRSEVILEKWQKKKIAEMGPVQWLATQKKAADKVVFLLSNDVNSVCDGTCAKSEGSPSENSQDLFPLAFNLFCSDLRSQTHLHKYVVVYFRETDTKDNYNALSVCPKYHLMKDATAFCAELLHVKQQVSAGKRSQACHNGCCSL
Protocol: (§1) HEK293 cells (ATCC, Manassas, VA) transfected either with full-length human or rhesus monkey IL-17RB (SinoBiological, Beijing, China) were examined for binding to SM17 following standard protocol for flow cytometry. Wild-type HEK293 stained with IgG4 isotype control (Sino Biological) was used as the negative control and for gating purpose. Briefly, HEK293 cells at a density of 3×10^5 cells were seeded into each well of a 6-well plate. On the next day, human or rhesus Il-17RB full length cDNA were first cloned into pCMV3-untagged expression plasmid through standard molecular cloning technique, and then expression plasmids for human or rhesus IL-17RB were transfected into HEK293 cells by lipofection (Lipofectamine 3000 reagent; Thermo Fisher Scientific). Transfected cells were trypsinized, harvested, and fixed with 4% paraformaldehyde (5 minutes). SM17, or human IgG4 control at 1 μg/ml in washing buffer (3% BSA in PBS) were added to the resuspend cells for incubation at RT for 30 min before Alexa Fluor® 647-conjugated goat anti-human IgG specific antibody (1:2000 dilution in washing buffer) (Jackson ImmunoResearch) was added for flow cytometry analysis using the BD FACSVerse cell analyzer (Becton Dickenson, Franklin Lakes, NJ).

wild type HEK293 = test: Flow cytometry, SM17 binding to wild type HEK293; conditions: SM17 1 μg/ml
Protocol: as §1

## SM17: humanized anti-IL17RB monoclonal antibody, human IgG4 isotype; HC SEQ ID NO: 32, LC SEQ ID NO: 33
Murine IL17RB; SM17 0.0032 μg/mL
  OD 450 nm Absorption, murine IL17RB: 0.12 and 0.19
Murine IL17RB; SM17 0.016 μg/mL
  OD 450 nm Absorption, murine IL17RB: 0.31
Murine IL17RB; SM17 0.08 μg/mL
  OD 450 nm Absorption, murine IL17RB: 0.78
Murine IL17RB; SM17 0.4 μg/mL
  OD 450 nm Absorption, murine IL17RB: 1.68 and 1.61
Murine IL17RB; SM17 2 μg/mL
  OD 450 nm Absorption, murine IL17RB: 2.46 and 2.44
Murine IL17RB; SM17 10 μg/mL
  OD 450 nm Absorption, murine IL17RB: 2.67 and 2.61
hIL17RE
  binding of SM17 to IL17RE (in words): No obvious bindings
[1]
  binding of SM17 to RhIL17RB-HEK293: 39%
Wild type HEK293
  binding of SM17 to wild type HEK293: ~7%
